Assay results published in publication doi:10.1101/477745, “The (p)ppGpp-binding GTPase Era promotes rRNA processing and cold shock survival in Staphylococcus aureus” (bioRxiv, 2019).

Columns and labels:
[1] = biological target: T1, Era fused to SB (small bit of luciferase) (S. aureus, UniProt Q2FGF6 1-299); experiment: split reporter (BiFC, NanoBiT); split luciferase (SB and LB fusions from pAP118) in S. aureus LAC*; 100 ng/ml Atet for 90 min, normalised to OD600 0.1, Nano-Glo; luminescence relative to a control with one fusion only; details: partners not purified
T1 construct: GTPase Era, Staphylococcus aureus; For the Era-Era pair the second copy of Era was fused to the large bit (LB); also called EraSB; full-length Era; source: S. aureus LAC*, expressed from pAP118 with Atet, in cells
T1 sequence (looked up): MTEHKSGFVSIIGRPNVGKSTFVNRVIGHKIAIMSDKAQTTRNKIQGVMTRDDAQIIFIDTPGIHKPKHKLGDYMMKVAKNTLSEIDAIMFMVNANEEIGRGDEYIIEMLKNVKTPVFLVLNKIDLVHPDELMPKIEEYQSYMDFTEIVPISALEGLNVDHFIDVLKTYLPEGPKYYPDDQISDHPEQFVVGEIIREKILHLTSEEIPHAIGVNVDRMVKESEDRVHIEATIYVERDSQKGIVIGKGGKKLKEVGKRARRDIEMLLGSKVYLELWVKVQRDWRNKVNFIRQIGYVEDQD

[2] = biological target: T2, GST-CshA (S. aureus, UniProt Q2FF45 1-506); experiment: pull-down; 1 uM GST or GST fusion coupled to glutathione beads; incubated with His-tagged protein (printed 1 pM) in 25 mM Tris pH 7.5, 150 mM NaCl, 5 mM MgCl2, 0.5% Triton X-100 at 4°C overnight; eluted with glutathione; blot with anti-His-HRP; details: both partners purified
T2 construct: DEAD-box RNA helicase CshA, Staphylococcus aureus; also called GST-tagged CshA; not shown: GST, N-terminal, kept

B1: full-length CshA fused to LB (large bit of luciferase) (natural protein, S. aureus, UniProt Q2FF45 1-506, looked up)
chain: MQNFKELGISDNTVQSLESMGFKEPTPIQKDSIPYALQGIDILGQAQTGTGKTGAFGIPLIEKVVGKQGVQSLILAPTRELAMQVAEQLREFSRGQGVQVVTVFGGMPIERQIKALKKGPQIVVGTPGRVIDHLNRRTLKTDGIHTLILDEADEMMNMGFIDDMRFIMDKIPAVQRQTMLFSATMPKAIQALVQQFMKSPKIIKTMNNEMSDPQIEEFYTIVKELEKFDTFTNFLDVHQPELAIVFGRTKRRVDELTSALISKGYKAEGLHGDITQAKRLEVLKKFKNDQINILVATDVAARGLDISGVSHVYNFDIPQDTESYTHRIGRTGRAGKEGIAVTFVNPIEMDYIRQIEDANGRKMSALRPPHRKEVLQAREDDIKEKVENWMSKESESRLKRISTELLNEYNDVDLVAALLQELVEANDEVEVQLTFEKPLSRKGRNGKPSGSRNRNSKRGNPKFDSKSKRSKGYSSKKKSTKKFDRKEKSSGGSRPMKGRTFADHQK
notes: DEAD-box RNA helicase CshA, Staphylococcus aureus, 506 residues by the printed domain limits; also called CshALB; source: S. aureus LAC*, expressed from pAP118 with Atet, in cells
- fold increase in luciferase activity [1]: 4 fold

B2: His-tagged Era (natural protein, S. aureus, UniProt Q2FGF6 1-299, looked up)
chain: T1 sequence (looked up)
notes: GTPase Era, Staphylococcus aureus; also called His-Era; recombinant Era
- binding result [2]: binds
